T1: human lysozyme (human, UniProt P61626 19-148)
T1 construct: Bought; passed through Superdex 75 before SPR
T1 sequence (looked up): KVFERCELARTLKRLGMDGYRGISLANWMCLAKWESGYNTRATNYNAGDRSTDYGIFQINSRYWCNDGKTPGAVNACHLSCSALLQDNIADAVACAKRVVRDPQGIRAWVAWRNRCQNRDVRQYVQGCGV

T2: ovalbumin (UniProt P01012 2-386)
T2 sequence (looked up): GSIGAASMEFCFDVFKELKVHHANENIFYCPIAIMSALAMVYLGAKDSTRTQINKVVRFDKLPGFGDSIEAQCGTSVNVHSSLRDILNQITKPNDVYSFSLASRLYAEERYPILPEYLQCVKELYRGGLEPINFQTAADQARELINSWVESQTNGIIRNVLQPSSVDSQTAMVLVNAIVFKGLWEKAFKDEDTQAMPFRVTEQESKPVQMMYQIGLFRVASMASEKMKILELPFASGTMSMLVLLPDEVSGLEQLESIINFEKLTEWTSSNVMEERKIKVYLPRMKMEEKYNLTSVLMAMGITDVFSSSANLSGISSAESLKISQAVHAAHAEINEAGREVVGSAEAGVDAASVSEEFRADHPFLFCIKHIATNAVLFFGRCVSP


Key:
human lysozyme = target: T1, human lysozyme; experiment: phage ELISA, phage-displayed VL on immobilized human lysozyme
bovine serum albumin = bovine serum albumin (bovine, UniProt P02769 25-607); experiment: SPR (Biacore 3000), VL over immobilized bovine serum albumin (about 1,900 RUs)
bovine serum albumin, sequence (P02769 25-607 limits assumed): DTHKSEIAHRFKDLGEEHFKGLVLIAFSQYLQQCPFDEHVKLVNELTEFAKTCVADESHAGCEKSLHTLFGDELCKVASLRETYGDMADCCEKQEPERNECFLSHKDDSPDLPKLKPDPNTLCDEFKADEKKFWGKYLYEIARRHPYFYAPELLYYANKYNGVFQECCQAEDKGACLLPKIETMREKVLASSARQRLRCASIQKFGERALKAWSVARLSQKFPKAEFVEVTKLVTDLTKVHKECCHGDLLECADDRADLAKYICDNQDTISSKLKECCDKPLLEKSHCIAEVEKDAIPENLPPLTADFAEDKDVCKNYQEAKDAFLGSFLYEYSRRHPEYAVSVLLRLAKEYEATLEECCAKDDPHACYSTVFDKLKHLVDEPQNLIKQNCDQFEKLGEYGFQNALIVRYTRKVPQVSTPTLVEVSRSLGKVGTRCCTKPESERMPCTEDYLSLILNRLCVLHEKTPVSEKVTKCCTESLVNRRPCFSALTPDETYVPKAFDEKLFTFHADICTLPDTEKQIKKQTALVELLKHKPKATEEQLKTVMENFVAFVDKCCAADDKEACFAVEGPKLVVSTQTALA
Procedure: (§1) The KD of the VL against human serum albumin was determined by surface plasmon resonance as described for other domains above. Briefly, the binding of the VL to immobilized human serum albumin was determined by SPR using the BIACORE 3000 (GE Healthcare). Approximately 1,600 RUs of human serum albumin, 1,900 RUs of bovine serum albumin and 2,200 RUs of ovalbumin were immobilized on a research grade CMS sensor chip. An ethanolamine blocked surface was prepared, as a reference, in exactly the same manner as the protein surfaces. Immobilizations were carried out at concentrations of 20 μg/mL in 10 mM acetate buffer pH 4.5 using the amine coupling kit supplied by the manufacturer. The VL was passed through a Superdex 75 column (GE Healthcare) to eliminate any possible aggregates prior to Biacore analysis. For the binding studies, analyses were carried out at 25° C. in 10 mM HEPES, pH 7.4 containing 150 mM NaCl, 3 mM EDTA and 0.005% surfactant P20. The flow rates used were 40 μL/min and sample volumes were 60 μL. For regeneration the surface was washed for 10 min with the running buffer. Data were analyzed with BIAevaluation 4.1 software.

human serum albumin = target: T3, human serum albumin (human, UniProt P02768 25-609); experiment: SPR (Biacore 3000), VL over immobilized human serum albumin
T3 construct: also called HSA
T3 sequence (P02768 25-609 limits assumed): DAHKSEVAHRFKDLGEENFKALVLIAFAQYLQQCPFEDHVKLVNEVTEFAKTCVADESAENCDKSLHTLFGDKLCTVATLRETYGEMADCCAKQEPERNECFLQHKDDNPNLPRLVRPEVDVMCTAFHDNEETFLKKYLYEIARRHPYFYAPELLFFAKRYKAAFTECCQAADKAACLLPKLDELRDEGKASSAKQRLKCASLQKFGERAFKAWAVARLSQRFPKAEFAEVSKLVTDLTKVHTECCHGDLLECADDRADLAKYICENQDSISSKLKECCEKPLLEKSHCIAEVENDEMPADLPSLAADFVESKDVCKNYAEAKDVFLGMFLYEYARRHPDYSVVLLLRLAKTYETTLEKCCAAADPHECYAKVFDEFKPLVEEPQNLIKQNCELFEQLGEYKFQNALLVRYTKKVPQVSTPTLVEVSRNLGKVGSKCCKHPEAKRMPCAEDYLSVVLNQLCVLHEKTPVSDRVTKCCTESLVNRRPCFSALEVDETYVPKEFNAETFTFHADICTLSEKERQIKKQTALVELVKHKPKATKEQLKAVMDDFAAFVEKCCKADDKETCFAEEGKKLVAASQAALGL
Procedure: as §1

ovalbumin = target: T2, ovalbumin; experiment: SPR (Biacore 3000), VL over immobilized ovalbumin (about 2,200 RUs)
Procedure: as §1

binding result (human lysozyme)	binding result (bovine serum albumin)	Kd (human serum albumin)	binding result (ovalbumin)	Binder
binds	–	–	–	HVLHLFL (antibody, V domains shown, Anti-human lysozyme VL from the HVLP324S library; KD not determined) VL: DIQMTQSPSSLSASVGDRVTITCLASQSIFLYLDWYQQKPGKAPKLLCFFASTLESGVPSRFSCSGSGTDFTLTISNLQPEDFATYYCQQSYSTPRTFGHGTKVTVL
–	no binding	800 nM	no binding	HVLHSA1 (antibody, V domains shown, Anti-human serum albumin VL single-domain antibody from the HVLP324S library (Cys48/Cys64); also called anti-human serum albumin VL; not shown: C-terminal His6 tag) VL: DIQMTQSPSSLSASVGDRVTITCRASQSISTYLNWYQQKPGKAPKLLCFGASRLNSGVPSRFSCSGSGTDFTLTISNLQPEDFATYYCRQLFPLPDRRTFGHGTKVTVL

Reference: patent US20170044238A1 (NATIONAL RESEARCH COUNCIL OF CANADA, published 2017)
